Here are results for one molecule from paper PMC5900712.

The target of the data set is T1, YanA86D (monomer) (UniProt Q01842 1-499, A86D).
T1 sequence: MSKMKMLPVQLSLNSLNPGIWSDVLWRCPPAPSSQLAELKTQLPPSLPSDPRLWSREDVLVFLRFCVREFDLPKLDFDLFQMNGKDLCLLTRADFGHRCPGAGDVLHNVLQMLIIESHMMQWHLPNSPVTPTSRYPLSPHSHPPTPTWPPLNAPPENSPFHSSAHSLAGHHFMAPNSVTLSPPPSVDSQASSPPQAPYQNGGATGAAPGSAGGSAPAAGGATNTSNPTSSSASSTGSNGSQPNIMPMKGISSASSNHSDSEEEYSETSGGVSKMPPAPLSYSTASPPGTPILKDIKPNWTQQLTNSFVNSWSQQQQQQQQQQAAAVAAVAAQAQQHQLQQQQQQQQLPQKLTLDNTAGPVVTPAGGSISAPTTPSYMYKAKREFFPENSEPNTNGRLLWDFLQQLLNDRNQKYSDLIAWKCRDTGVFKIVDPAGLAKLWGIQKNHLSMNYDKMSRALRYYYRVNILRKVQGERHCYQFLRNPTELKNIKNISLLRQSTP
Briefly: competition.

B1: MHE ETS site 6 (dsDNA)
DNA 1: AAATGCTTAAACAGGGAAATCGTCTTGG
DNA 2: CCAAGACGATTTCCCTGTTTAAGCATTT
Turning to B1, the binding result was “no binding”.
